From the supplement of paper PMC6757056
± gives the standard deviation of the averaged measurements.

B1: library; a variant is named by its letters at N, in order (parent)
chain: GCUGUCACCGGUGUAUUACCCUAGUGGUCGACCGGUCUGAUGAGUCUNNNNNNAGACGAAACAGC

How the values were obtained:
hypoxanthine [1] = variants of: B1; experiment: FACS-Seq fitted mean relative fluorescence mCherry/BFP without ligand (log10 relative fluorescence); ligand: hypoxanthine (xanthine aptamer); higher = higher reporter protein expression; conditions: HEK293T, ligand present: no
Summary of the method: (§1)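 Lentivirally transduced HEK293T libraries carried an mCherry reporter with the ribozyme switch and an EF1α-BFP marker. Transduced cells were enriched, then incubated with or without ligand for 48 h and sorted into 6 bins by mCherry/BFP. Genomic DNA from each bin was PCR-amplified, barcoded and sequenced on MiSeq. Fluorescence was the fitted normal mean of log10(mCherry/BFP) bin counts, scaled to five spiked-in control ribozymes.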

hypoxanthine [2] = variants of: B1; experiment: normalized RNA/DNA level with ligand (relative to sTRSVctl = 100) (log10 (% of sTRSVctl)); ligand: hypoxanthine (xanthine aptamer); higher = less ribozyme self-cleavage, higher mRNA level; conditions: ligand concentration (+) RNA-Seq: 5 mM, HEK293T, reporter: mCherry (pCS4076), ligand present: yes
Summary of the method: (§2)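 Total RNA, extracted with EDTA 72 h after HEK293T cells were transfected with 4 µg per 6-well well of reporter-linked ribozyme switch library plasmids, was reverse-transcribed, amplified, barcoded and sequenced. Ligand, if used, was added 1 h before transfection. RNA level was derived from RNA reads divided by DNA reads and normalized to a spiked-in non-cleaving sequence or to the top sequences. This was multiplied by 100 and log10-transformed, with the top set of 25 sequences and a ≥100 DNA read minimum.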

hypoxanthine [3] = variants of: B1; experiment: normalized RNA/DNA level without ligand (relative to sTRSVctl = 100) (log10 (% of sTRSVctl)); ligand: hypoxanthine (xanthine aptamer); higher = less ribozyme self-cleavage, higher mRNA level; conditions: HEK293T, reporter: mCherry (pCS4076), ligand present: no
Summary of the method: as §2

hypoxanthine [4] = variants of: B1; experiment: FACS-Seq fitted mean relative fluorescence mCherry/BFP with ligand (log10 relative fluorescence); ligand: hypoxanthine (xanthine aptamer); ligand concentration (+) FACS-Seq: 5 mM; higher = higher reporter protein expression; conditions: HEK293T, ligand present: yes
Summary of the method: as §1

| Variant | FACS-Seq fitted mean (log10) (hypoxanthine [1]) | normalized RNA/DNA level with ligand (log10) (hypoxanthine [2]) | normalized RNA/DNA level without ligand (log10) (hypoxanthine [3]) | FACS-Seq fitted mean (log10) (hypoxanthine [4]) |
| --- | --- | --- | --- | --- |
| UGUGUG | 0.266 ± 0.078 | 1.93 ± 0.058 | 1.676 ± 0.0071 | 0.333 ± 0.086 |
| GGGUGG | -0.2387 ± 0.0022 | 1.91 ± 0.046 | 1.54 ± 0.05 | 0.3262 ± 0.0019 |
| GGGUGA | 0.0881 ± 0.05 | 1.95 ± 0.033 | 1.71 ± 0.031 | 0.487 ± 0.0065 |
| GGGUGC | 0.296 ± 0.1 | 1.9 ± 0.036 | 1.52 ± 0.017 | 0.348 ± 0.011 |
| AGUAUA | 0.449 ± 0.0061 | 1.91 ± 0.079 | 1.7692 ± 0.0007 | 0.472 ± 0.057 |
| GGUACU | 0.2 ± 0.042 | 1.97 ± 0.083 | 1.93 ± 0.047 | 0.258 ± 0.029 |
| GGUACG | 0.173 ± 0.027 | 1.88 ± 0.031 | 1.49 ± 0.016 | 0.506 ± 0.019 |
| UGUUAU | -0.225 ± 0.19 | 1.89 ± 0.0069 | 1.817 ± 0.0095 | -0.287 ± 0.069 |
| UGUCUA | -0.725 ± 0.058 | 1.95 ± 0.067 | 1.92 ± 0.02 | -0.723 ± 0.08 |
| CGUGGG | 0.0862 ± 0.026 | 1.85 ± 0.022 | 1.3 ± 0.078 | 0.505 ± 0.047 |
| CGUGGA | 0.123 ± 0.011 | 1.96 ± 0.02 | 1.729 ± 0.0031 | 0.396 ± 0.057 |
| AUAAUA | -0.24 ± 0.021 | 1.886 ± 0.012 | 1.82 ± 0.0094 | -0.134 ± 0.044 |
| AUAAUU | 0.751 ± 0.0089 | 1.92 ± 0.046 | 1.83 ± 0.061 | 0.619 ± 0.013 |
| AUAAUG | 0.211 ± 0.039 | 1.838 ± 0.013 | 1.51 ± 0.064 | 0.551 ± 0.036 |
| CGUAAA | 0.554 ± 0.028 | 1.865 ± 0.0031 | 1.65 ± 0.034 | 0.4915 ± 0.0049 |
| UGUAUG | 0.361 ± 0.043 | 1.909 ± 0.007 | 1.777 ± 0.0029 | 0.435 ± 0.059 |
| AGUACG | 0.173 ± 0.058 | 1.84 ± 0.022 | 1.38 ± 0.052 | 0.423 ± 0.086 |
| CGUUGG | 0.31411 ± 0.00021 | 1.966 ± 0.0055 | 1.413 ± 0.0094 | 0.58 ± 0.022 |
